Consider 19 sequences from the DeepSol protein solubility set.

This series in a line: soluble on expression in E. coli; label from the status in PepcDB or PDB records.
Turning to “MAKPSFSCSACGASFTKWSGRCEGCGDWNTISQDAGLSAGPAKKSLGAKRGRAVTLTDLASEEAPPPRAMSGIGELDRVLGGGLVPASAILVGGDPGIGKSTLLLQAVAAFARKGLKTLYVSGEEASAQVRMRARRLGLADAPVQLAAETNLRDILTTLEAEKPGLVIIDSIQTMWADNVDSAPGSVSQVRASAHELTTFAKRTGISVIMVGHVTKDGQIAGPRVVEHMVDTVLYFEGERGHQFRILRSVKNRFGAADEIGVFEMTGAGLAEVTNPSALFLSERGAPSPGSVVFAGIEGTRPVLVELQALVAPSPHSQPRRTVVGWDGGRLAMILAVLEARCGIPFAGLDVYLNVAGGLKISEPAADLAVAAALLSAREDRALPGDTVIFGEISLSGALRPASQTENRLKEAQKLGFTSAIAPAGGKTGTLEGLTMTRPTDLVGFVGEFFGAGLEHHHHHH”, the “soluble on expression in E. coli” value is given as “not soluble”.

Take “MQSEKIAQLKAALQNFSASNSDLFDYALEEEKAKVRKRALLLLDQRARSVYELTNRLISADFDPNIVEYVVEDLVRANLLNDENFSREWVRQRRQRRGKSRQALTRELRDKGIKSEIIADVVGDIQPEDEQDIARELAYKKVRSLKKEPCDYPEYQKVLRRTVGVLARRGFSQSMALEIAREAIDARIDEIRR”: the “soluble on expression in E. coli” value is “not soluble”. To “MQFFTSDTHFFHKDLLGDSDFAPRPFASVDEMNQTIIDNWNARVAETDTVYHLGDIALYFTKPAIKSDEAVFNVLSQLNGHLELIKGNHDSRALFKYLAAHNFSDHGQPKFAFHDVGALIKYDHRQYYLTHYPMMLGIVNQIINLHGHIHHYAVPVKENINVGVDTPEQRYLTTSVPFGTPFSPTEIEQMVTGKAQEFREKQLEHHHHHH” belongs “not soluble”; to “SYPYILISGHKHPRLSMHRGAKKRKGEYFGPYPDSGAVRETLHLLQKIFPVRQCEDTVYSNRTRPCLMYQIGRCAGPCVSSIISDEEYAELVGFVRLFLQGKDQQVLKQLIEKMEVASQQLRFEDAAKFRDQIQAIRRVQEQQYVSEDSMDDMDVLGFAQENGIACIHILMIRQGKVLGSRSHFPKIPQNTSQQEVFDSFLTQYYLSHNEARTIPSRIILNQELADDLEPIQKALSEVAGRKVHFHTSPTGARGRYLKLSNTNALTAITTKINHKMTINQRFKALRETLGMESIMRMECFDISHTMGESTIASCVVFNNEGPVKQEYRRYNITGITGGDDYAAMGQALERRYSKQLDVEKIPDIIFIDGGKGQLNRAHEIIAQYWGDWPKRPIMIGIAKGVTRKPGLETLITVDGEEFNLPSDAPALHLIQHIRDESHNHAIAGHRAKRGKTRR”, “not soluble”. “MEASKEFPGFPNDFHAFEVSPIPFDINSKELSLKNHSNRAILFKVKCTNNKRIRIEECSDILKPGNETTATIKKLVDTVDGDSLYVIYTLVGKEWHNERMSAWRCWERAKKQAVPTQCISVPIKRSSECEKKEKKYEKEKTKSED”: the “soluble on expression in E. coli” value is reported as “soluble”. Regarding “MKWRSRQLSFSSAKWYGDVIWIFDPGIIGAQIDNEGDLKKCFIQTLFHSTGSRQSIRIWWREIMLSLILRIYLDKFLPWISLSIKEVGESSVINFSLWGCLHGTRFRRWYSPFQKLSALAITKKDVISSSWRCFNGMRCN”, the “soluble on expression in E. coli” value is “soluble”. For the sequence “MQIQTPDWVKHAVFYQIFPDRFARSKQPRKRLLQEARWEDWDSMPTLQGYKGGDLWGIMEDLDYIQNLGINAIYFTPIFQSASNHRYHTHDYYQVDPMLGGNEAFKELLDAAHQRNIKVVLDGVFNHSSRGFFFFHDVLENGPHSPWVNWFKIEGWPLSPYNGEFPANYVGWAGNRALPEFNHDNPEVREYIMEIAEYWLKFGIDGWRLDVPFEIKTPGFWQEFRDRTKAINPEAYIVGEVWGDSRQWLDGTQFDGVMNYLFAGPTIAFAAGDRVVLEQVQSRDYQPYPPLFAAEYATKIQEVLQLYPWEIQLTQLNLLASHDTARLMTIAGGDIASVELSTLLLLTFPGAPSIYYGDEVGLPGGIDPDSRRGFPLEANWNQEIFNTHRQLITIRQTYPALRTGDYQVLYAQGQLYLFARTLGTEELIIAINAGTSSATANVDVASLHTQPNKLLYGTAEAEWNGEEGTQQLSLTLPARSGCILGTGD”, the “soluble on expression in E. coli” value is recorded as “soluble”. “MGSDKIHHHHHHMFDVCLFKKMNILYATCFLDVSGVTRLNYDILARLAGKNNIYVCETASDGRLTSKLENHFRDSFGEPFKLFRYPLQDRYRRFLEYLDSNAIDLVFNTHSLWVYEHIAKLKKDRSNLKVVDSLHVLEPYCFRGGYPDISANRYVHPFIDKSIVISEHLLSYIKRSYSVDPGKFIIIRNGVDTTRFKKDSSLKGIFRNELGVPANFPLIGYIGRFSRQKRPDVFLDVAKHLLGKLGEVYFYMAGDGDLLDKSKKLADSLGISNRVSFVAPRDDIHIVLNSTDMLVLTSSYEGAPLTILEALATGVPVVASDVGAISEYVGTPYVVQRQGRGAEVDQFAEAILRGLNDNYPSIFDREIFSLDYVADSYARVFYDTAVRTSTTQEN”: the “soluble on expression in E. coli” value is recorded as “not soluble”. The same measure for “MKMNEIVASTQFPNTIETITKDLKALGVEKGMTIIVHSSLSSIGWISGGAVAVVEALMKVVTEEGTIIMPTQSSDLSDPKHWSRPPVPEDWWQIIRDNVPAFDSRITPTRGMGEIVECFRTYPNVVRSNHPLGSFAAWGKHAVEITMNHSLSMSFGEESPLRKIYDLDGYVLLIGVGYDSNTSVHLSEVRSGACELIQVGAPIIENGERVWKEFVEMDYESEKFVEIGVEFERKGTVKNGKIGNATCRLMKQRDIVDFGTEWFRKKN”: “not soluble”; for “MESVLNNEKAIVVFSGGQDSTTCLFYAKKHFKEVELVTFNYGQRHDTEIEVAKQIAQDQGMKHHVLDMSLLSQLTPNALTQHDMEITNNEDGIPNTFVPARNLLFLSFAGALAYQIGAKHIITGVCETDFSGYPDCRDSFIKSMNVTLSLAMDKDFVIHTPLMWLNKAETWKLSDELEVLDYIRTKTLTCYNGIIGDGCGECPACHLRQRGLNQYLESKGAL”: “not soluble”. To “GPGSMNQLISVINELHDAFAGVKMNIKLNLPQIAVVGSQSCGKSSVLESIVGKDFLPRGSGIVTRCPLVLQLVQLPKSNEEEWGEFLHIPNKKFYDFNEIQNEITRRTIEIAGPSAITDKPINLKVYSSAVLNLTLVDLPGLVMNAVGDQPKDIDRQIKDMVTRYVLPKNTIILAISPANTDLATSQSLRLAKQLDPEGVRTVGVLTKIDLMDKGTDCFDVLQNRVLQLRHGFVGVVCRSQQDINDCKSMEDARRSEYEFFANSPIYSPIAEEAGTAYLSKKLNFLLLEHIKAVIPDLKHHVDQLMEATKKQMEKLGMFEQDITEPTAQLLYLIKVFSDALNQTIDGGITDATKELLGGARLDYIFHECFATYVTSLSATKDLTDDYIRINTRNMAGMHATLFPSDQVFVALSKQQINRLEEPCIKCVTFVYEELGKIVEICAGKVDRYPNLKEAVIAICKKMLFDYRLPTSTHVRTIIKAERGFINVKHPMMDELAQRALSNIYGTTSGESSSPPRNSSGPNASAAGGTQADPKQSGKDIKKDDKRGVRDEKRPEKPKEQGNTDSAISPGNKSDMNDVPSRIMLGKTMTMHEQFMNSAIREMVEGYFSIVKGNVADQVPKAITLLMITRLREEVYARLVSELYSDKTAKALLSEPPGIATQRKAAKEMLEALTKAQNALNSVRDYQLTKEPASSMQAGT” belongs “soluble”. To “MGSDKIHHHHHHMRYRPVIGLEIHVQLSTKTKAFCSCPADVFELPPNTAICPVCTGQPGALPVPNEEMIRFAVKTALALNCKIHKYSRFDRKNYFYPDLPKGYQISQYFYPIATEGFLEIDGDEGRKKVRIRRLHLEEDAGKLVHEGDSITRASYSLVDMNRCGVPLIEIVTEPDISSPREARVFMEKLRSIVRYLGVSTGDMEKGALRCDANISVVDTETGRQSNRVEVKNMNSFRFVERALEYEFERIVKAMERGEDVERETRGWDMATKITVSMRGKEEESDYRYFPEPDIPPVVLSDEYLEEVKKELPELPDEKAERFMREYGLPEYDAKVLTSSKELAEFFEECVKVVNRPKDLSNWIMTEVLRELNERNIEITESKLTPQHFADLFKLMDEGKISIKIAKEIFPEVFETGKMPSQIVEEKGLTQINDEKLIEELVKKAMEQNPKAVQDYKSGKKKAAGFFVGYVMRETKGKANPELTNRIIQKLLEGE” belongs “not soluble”; to “MEVRFTRGKSAILERSLTRPKTEVSVSAFALLFSEMVQYCQSRVYSVSELQARLADMGQGVGASLLDVLVMREKNGKRETKVLNILLFIKVNVWKALFGKEADKLEQANDDDKTYYIIEKEPLINAYISVPKENSTLNCAAFTGGIVEAILTHSGFPAKVTVHWHKGTTLMIKFDESVIARDKALDGR”, “soluble”. Regarding “METACERLHVAQETQMQLIEKSSDKLQDHILYWTAVRTENTLLYAARKKGVTVLGHCRVPHSVVCQERAKQAIEMQLSLQELSKTEFGDEPWSLLDTSWDRYMSEPKRCFKKGARVVEVEFDGNASNTNWYTVYSNLYMRTEDGWQLAKAGADGTGLYYCTMAGAGRIYYSAFGDEAARFSTTGHYSVRDQDRVYAGVSSTSSDFRDRP”, the “soluble on expression in E. coli” value was “soluble”.

Take “MGSDKIHHHHHHMSKVFIIGLPRTGTTSISVALLEMGLSVAHTAFTKKAFEMADAVTDAPCFSDYMHLDRIFPHAKFIYLTREMAKWVPSIIMLLEKMAPHLDPKTGKFNPILKRSFHHTFPGTLPLTENELIDCYTRHEQAVLSYFEGRDDFLSIDISKQGSLLEMKMFLGIEAQGSADFPKLNVGRDVASWKDYKHPNKINSNLAGVEHRKYYDYALVDYRTY”: the “soluble on expression in E. coli” value was “not soluble”.

“MAHHHHHHMAQRVAIPDDCVYEGYGNLYRGDAEVTPPQPIVGARGGNGVLYGTIDSEEALRQLRTALRVDVHPQLKALVQEKKLDEVASSPASLPWLVCRPNALPLRTLPSSFSSGTRYEIERMKSQCRFLRDWLMCHETPEERVEAREFLRTAQRLLQKESVEELLGRTENLLQQLENWPAVVEKARPHIAEWNNDKSLTELREFVGDVLGTDEVCARLSKLTCRFSLLAPLLEEAAFRSAALEEMEQWSSEATVSSLRSLRASIHDWELRVAKDQQNVLDSSQLLLERIAAVRNKRRESAGDLT”: the “soluble on expression in E. coli” value was “soluble”. To “MGSDKIHHHHHHMPRTIRIYRPTELPADEALPVIYMHDGQNVFSGETASFGKGWEVHHALHTVQLHAMIVAIDSPDDGMDRYDEYAPWTDEALLMRTAYPSHRKTIGGNGKQYMHWIVHELKPYIDAQYATIPTDTTMIGSSMGGVISLYGLFAYPEVFTRVAALSTAGWANFSSLLEFIERSPGLSEDHRCYMDVGTKEVSGPMTENDYLHTNEVLAKAVQKKVQQAAYEIIPGAVHHETEWAKRMPDILRFLFSS” belongs “not soluble”; to “MSHCSCHDKPQHSLLPAAYRILSITRHTPLEWNFRVAVDFPAHWGQFVEVSLPRVGEAPISVSDYGDGWIDLLIRNVGKVTSALFTLKEGDNVWLRGCYGNGYPVDTLRHKPLLVVAGGTGVAPVKGLMRYFVENPQEIGQLDMILGYKNRDCVLYKEEMATWRGKHNLVLTLDEGEADDRYQIGRVTDRLADMTLSDIDTMQAIVVGPPIMITFTVKMLLQKGLKPEQIWVDYERRMACSVGKCGHCRMGEVYVCTDGPIFNYAVAQRFAD”, “not soluble”.

On to “MVEINNQRKAFLDMLAWSEGTDNGRQKTRNHGYDVIVGGELFTDYSDHPRKLVTLNPKLKSTGAGRYQLLSRWWDAYRKQLGLKDFSPKSQDAVALQQIKERGALPMIDRGDIRQAIDRCSNIWASLPGAGYGQFEHKADSLIAKFKEAGGTVREIDV”, for which the “soluble on expression in E. coli” value is recorded as “soluble”.
